Data published in the RNAGym collection of RNA variant scans (doi:10.7554/elife.90254).

B1: OR4K15 (parent)
chain: GUUAACGGUCAUAGGCCAUGGAAACUAGGAGCACCAUUUCGCUGCCAGUGAAGAAAUGAACAAAGAAAAUCUGGGCCAGGCAGGCAUCAAAAGAAAUAGUCUUGCGCUCAACCAGAAAGUCUGUAAUCAUUUUAAGGGUA

Variants of: B1
Experiment: self-cleavage, relative activity (ratio to wild type); higher = more cleavage; in vitro, sequencing; the parent is a self-cleaving ribozyme

Variant	self-cleavage
GUUAGCGGUCAUAGGCCAUGGAAACUAGGAGCACCAUUUCGCUGCCAGUGAUGAAAUGAACAAAGAAAAUCUGGGCCAGGCAGGCAUCAAAAGAAAUAGUCUUGCGCUCAACCAGAAAGUCUGUAAUCAUUUUAAGGGUA	0.85
GUUAGCGGUCAUAGGCCAUGGAAACUGGGAGCACCAUUUCGCUGCCAGUGAAGAAAUGAACAAAGAAAAUCUGGGCCAGGCAGGCAUCAAAAGAAAUAGUCUUGCGCUCAACCAGAAAGUCUGUAAUCAUUUUAAGGGUA	1.02
GUUACCGGUCAUAGGCCAUGGAAACUAGGAGCACCAUUUCGCUGCCAGUGAAGAAAUGAACAAAGAAAAUCUGGGCCAGGCAGGCAUCAAAAGAAAUAGUCUUGCGCUCAACCAGAAAGUCCGUAAUCAUUUUAAGGGUA	0.99
GUUACCGGUCAUAGGCCAUGGAAACUAGGAGCACCAUUUCGCUGCCAGUGAAGAAAUGAACAAAGAAAAUCUGGGCCAGGCAGGCAUCAAAAGAAAUAGUCUUGCGCUCAACCAGAAAGUCUGUAACCAUUUUAAGGGUA	0.89
GUUAGCGGUCAUAGGCCAUGGAAACUAGGAGCACCGUUUCGCUGCCAGUGAAGAAAUGAACAAAGAAAAUCUGGGCCAGGCAGGCAUCAAAAGAAAUAGUCUUGCGCUCAACCAGAAAGUCUGUAAUCAUUUUAAGGGUA	0.8
GUUAGCGGUCAUAGGCCAUGGAAACUAGGAGCACCCUUUCGCUGCCAGUGAAGAAAUGAACAAAGAAAAUCUGGGCCAGGCAGGCAUCAAAAGAAAUAGUCUUGCGCUCAACCAGAAAGUCUGUAAUCAUUUUAAGGGUA	1.79
GUUAGCGGUCAUAGGCCAUGGUAACUAGGAGCACCAUUUCGCUGCCAGUGAAGAAAUGAACAAAGAAAAUCUGGGCCAGGCAGGCAUCAAAAGAAAUAGUCUUGCGCUCAACCAGAAAGUCUGUAAUCAUUUUAAGGGUA	1.01
GUUAGCGGUCAUAGGCCAUGGGAACUAGGAGCACCAUUUCGCUGCCAGUGAAGAAAUGAACAAAGAAAAUCUGGGCCAGGCAGGCAUCAAAAGAAAUAGUCUUGCGCUCAACCAGAAAGUCUGUAAUCAUUUUAAGGGUA	0.81
GUUAGCGGUCGUAGGCCAUGGAAACUAGGAGCACCAUUUCGCUGCCAGUGAAGAAAUGAACAAAGAAAAUCUGGGCCAGGCAGGCAUCAAAAGAAAUAGUCUUGCGCUCAACCAGAAAGUCUGUAAUCAUUUUAAGGGUA	0.63
GUUACCGGUCAUAGGCCAUGGAAACUAGGAGCACCAUUUCGCUGCCAGUGAAGAAAUGAACAAAGAAAAUCUGGGCCAGGCAGGCAUCAAAAGAAAUAGUCUUGCGCCCAACCAGAAAGUCUGUAAUCAUUUUAAGGGUA	0.03
GUUAGCGGUCAUAGGCCAUGGAGACUAGGAGCACCAUUUCGCUGCCAGUGAAGAAAUGAACAAAGAAAAUCUGGGCCAGGCAGGCAUCAAAAGAAAUAGUCUUGCGCUCAACCAGAAAGUCUGUAAUCAUUUUAAGGGUA	0.8
GUUAGCGGUCAUAGGCCAUGGAACCUAGGAGCACCAUUUCGCUGCCAGUGAAGAAAUGAACAAAGAAAAUCUGGGCCAGGCAGGCAUCAAAAGAAAUAGUCUUGCGCUCAACCAGAAAGUCUGUAAUCAUUUUAAGGGUA	0.68
GUUAGCGGUCAUAGGCCGUGGAAACUAGGAGCACCAUUUCGCUGCCAGUGAAGAAAUGAACAAAGAAAAUCUGGGCCAGGCAGGCAUCAAAAGAAAUAGUCUUGCGCUCAACCAGAAAGUCUGUAAUCAUUUUAAGGGUA	0.8
GUUAGCGGUCAUAGGCCUUGGAAACUAGGAGCACCAUUUCGCUGCCAGUGAAGAAAUGAACAAAGAAAAUCUGGGCCAGGCAGGCAUCAAAAGAAAUAGUCUUGCGCUCAACCAGAAAGUCUGUAAUCAUUUUAAGGGUA	1.12
GUUAGCGGUCAUAGGCCAUGGAAACUAGGAGCUCCAUUUCGCUGCCAGUGAAGAAAUGAACAAAGAAAAUCUGGGCCAGGCAGGCAUCAAAAGAAAUAGUCUUGCGCUCAACCAGAAAGUCUGUAAUCAUUUUAAGGGUA	1.01
GUUAGCGGUCAUAGGCCAUGGAAACUAGGAGCGCCAUUUCGCUGCCAGUGAAGAAAUGAACAAAGAAAAUCUGGGCCAGGCAGGCAUCAAAAGAAAUAGUCUUGCGCUCAACCAGAAAGUCUGUAAUCAUUUUAAGGGUA	0.67
GUUAGCGGUCAUAGGCCAUGGAAACUAGGAGCCCCAUUUCGCUGCCAGUGAAGAAAUGAACAAAGAAAAUCUGGGCCAGGCAGGCAUCAAAAGAAAUAGUCUUGCGCUCAACCAGAAAGUCUGUAAUCAUUUUAAGGGUA	1.28
GUUAGCGGUCAUAGGCCAUGGAAACUAGGAGCACCAUUUCGCUGCCAGUGAAGACAUGAACAAAGAAAAUCUGGGCCAGGCAGGCAUCAAAAGAAAUAGUCUUGCGCUCAACCAGAAAGUCUGUAAUCAUUUUAAGGGUA	0.33
GUUAGCGGUCAUAGGCCAUGGAAACUAGGGGCACCAUUUCGCUGCCAGUGAAGAAAUGAACAAAGAAAAUCUGGGCCAGGCAGGCAUCAAAAGAAAUAGUCUUGCGCUCAACCAGAAAGUCUGUAAUCAUUUUAAGGGUA	1.03
GUUAGCGGUCAUAGGCCAUGGAAACUAGGAGCACCAUUUCGCUGCCAGUGGAGAAAUGAACAAAGAAAAUCUGGGCCAGGCAGGCAUCAAAAGAAAUAGUCUUGCGCUCAACCAGAAAGUCUGUAAUCAUUUUAAGGGUA	1.2
GUUAGCGGUCAUAGGCCAUGGAAACUAGGAGCACCAUUUCGCUGCCAGUGUAGAAAUGAACAAAGAAAAUCUGGGCCAGGCAGGCAUCAAAAGAAAUAGUCUUGCGCUCAACCAGAAAGUCUGUAAUCAUUUUAAGGGUA	1.35
